Experimental data taken from patent publication US20090233317.

Columns and labels:
[1] = test system: recombinantly expressed GRIM1 aa 3-147
[2] = test system: hsGRIM1 (human Global Repressor Involved in Myogenic differentiation), full length aa 1-749

## HAT domain of p300 (bacterially expressed)
[1]
  acetylation of GRIM1: detection of direct acetylation of GRIM1 (aa3-147 and of full-length GRIM1) by the HAT domain of p300
[2]
  acetylation of GRIM1: detection of direct acetylation of GRIM1 (aa3-147 and of full-length GRIM1) by the HAT domain of p300
